Experimental data from the DeepSol protein solubility set.

Experiment: soluble on expression in E. coli; label from the status in PepcDB or PDB records

Row | Sequence | soluble on expression in E. coli
1 | MRLIEQAIEKIESGQVTEGLTALEEAAKTANHEMKYTVAETYYELGHLDKAQAIIDELLMLYPDEGGLYTFAAEILIDLNKEDEAIEMLNEIKEQDPAFLQAQLLLADLYQLQSLDEVAEQKLLKAYEVAPDEPIISFGLGEFYLERGDYIKSIPHLKRAKHGGLTNDQVNVSLKLAEAYSGSGQFEEALPHYDEGLKQKLDPHGLFGYGYTAYLLGDYVLAIEQFQALKALDPDFYDPIPVFGEGFRRGKSFRGSNGCFKRGDDRGLEHHHHHH | soluble
2 | MSPKSKSTNKTYTIVIKLGTSSICDEKTHEPLISNLSLIVETVVKLRKLGHNVVLVSSGGIAMGLRRLDLPKRPSKLSAVQAIAAVGQGRLISLWDTLFTQLRQPIAQVLITRNDIAERSQYVNAANTISELLHFGVVPIVNENDTLSVQEIRFGDNDTLSAITAGMINADYLFLLTDVDCLYTDNPRTNPDAKPILKIHDTSMVNANVSTPGSGVGTGGMKTKLIAADLGTSSGVNVIICRGSKPSSIFDIIRQESSDNKNESVELPLHTHFVAKKQGRIRDRHFWLLHGLKSHGSLEIDRGAFEAITRTNRAGLLPVGVTKVHGHFSAHQAVTVIYNGEEIGRALVNYSSTEIDLIKGKRSKEIASILGYNETEYVAYRDYLVVHGLNSHHDSQVSSDEH | soluble
3 | GAMDPEFMSTPLPAIVPAARKATAAVIFLHGLGDTGHGWAEAFAGIRSSHIKYICPHAPVRPVTLNMNVAMPSWFDIIGLSPDSQEDESGIKQAAENIKALIDQEVKNGIPSNRIILGGFSQGGALSLYTALTTQQKLAGVTALSCWLPLRASFPQGPIGGANRDISILQCHGDCDPLVPLMFGSLTVEKLKTLVNPANVTFKTYEGMMHSSCQQEMMDVKQFIDKLLPPID | soluble
4 | MEGTMTCIYESVITGVGSEVQYFIEENMVVIFNDTVPDDLKSIGVIHKHTELQADVAAGDVLEVNGACFRILFVGDKVNDTLREIGHCTIAFNGETNADLPGTLCVEKKPLPDFVTGATIKFIKE | not soluble
5 | EELEYKGMNTLQISNVDDLISFYQYADDRIPLISGHRGGRGKGYPENSMETFENTLSYTPATFEIDPRLTKDSVIVLFHDDTLERTSNGTGKVSDYTWEELQNFRLKDPEGNITNYRIPTLEEAIRWARGKTILILDKKDVPMERTAQLITDMQAEPYVMITVHDGASARFFYEKNPNFMFEAFVKTKEAVQDYEDNGIPWSHIMAYVGPKITPEVREVIDMLHERGVMCMISTAPSDDKLSTPESRAEAYRMIIRQGVDIIESDRPIEVAEAISSLIPVSSSKGKFFSTL | soluble
6 | MSLAGAVALSLFDELDVVFGPAALADALFYRHSPALRFELEGGKTYIAQFLQAVDRARTVLNVAFAGMEAVTAVLGVWGDDPPAQLWATAEAALHELGIKLPAPELSASELPTPETRVLHGEEDTQVLFAFTLSTARLPELLWGSLAADLGIFPQLRGRLWLAAPELGLLACPYDSRGMDMIGPNTARLAQLYHQFGDWLLDHDRARMAEMLSPGSKEGHHHHHH | soluble
7 | MEDESSAKYPYRESMPRAERVSMKALQDEWRHLFITRAEGENNIHNPKIPEDTNDFDDDMPIECNESEEESITGDREVFSVHHNEEDEDQEDSSQICEESEPQELPKLCRRTDKHFKELPSGLINIIKDLSLDISGLYLPQTLLTGRIDLNDEFVASIEVEDAEKSKEILRRRRERPLALRQFSHALSRAMANLRTYHYDVTTEKIERCPMRNSCKGHLKWEQMRKYRAQCKKNFKDPSLATVEDMMSK | not soluble
8 | MSKRNTQQRRHNIIADLNAQGEVSVDSLAKQFDTSEVTIRKDLAALETSGLLLRRYGGAVALPSEITEAKVDQLSQQKLHIAKKAAMLIRDHNRIIIDSGQTTSALVSELANKKGLVVMTNALSIANEIHALENEPTLLMTGGTWDATSEAFQGQVAEQVLRSYDFDQLFIGADGIDIKRGTTTFNELIGLSRVMAEVAREVIVMVESAKITKKIPNLELNWQQIHTVITDDGLSEEMRIALTEQGVKLIIAKGLEHHHHHH | soluble
9 | MSLSNFYKLLKEKFPRKEDIVTEMINLEAICQLPKGTEYFISDLHGEYDAVDYLLRTGAGSIRAKLLDCFDWQKIVAVDLDDFCILLYYPKEKLAFDKMNLSASAYKTKLWEMIPLQIQVLKYFSSKYTKSKVRKQLSGKFAYIIEELLAEIDRNPEKKSYFDTIIEKLFELDQVEDLIIVLSQTIQVLIIDHLHVVGDIYDRGRYPDRILNRLMAFPNLDIQWGNHDVTWMGAASGSYLCMVNVIRIAARYNNITLIEDRYGINLRRLVDYSRRYYEPLPSFVPILDGEEMTHPDELDLLNMIQQATAILQFKLEAQLIDRRPEFQMHNRQLINQVNYKDLSISIKEVVHQLKDFNSRCIDSKNPSRLTSEEEELLQQLMIAFQTSESLKKHIDFLFEKGSMYLTYNDNLLFHGCIPMHSNGDFKSFKIAGKTYGGRDLLDLFESQIRLAYARPEKHDDLATDIIWYLWCGENSSLFGKNAMTTFERYYVSDKVTHQERKNPYFKLRDKDDICTALLQEFDLPKFGHIVNGHTPVKEKNGEQPIKANGKMLVIDGGFAKGYQKNTGLAGYTLIYNSYGIQLISHLPFTSIEEVLSGTNYIIDTKRLVEEAKDRILVKDTTIGQKLTKEIKDLDHLYRHFQEYDEGHHHHHH | soluble
10 | MHRTARNFAEIKPNLLFRKAKMARKSAEKYVAKKIQVPELQGEALFGLHSVLEAIRSGKRDFHSVFLKKAVENRADSDARIKEILSRIDELGIQKTLLTDDQLDRLTEFQLHNGICMDASALQFSNFEPKTVSIFVDKVLDPGNLGAIGRSAWYFGADGLGLVKGRGPKSITPAMIKSSCGALEHLPVQQFLNFNEFRDKIKAAGGELVATCDPGAAEKAGISAKSLDQWTPEKPVGIVLGDEGVGISRGILNLCDTVISISPVRKDGSNVTSLNVSVVAGILLHHISLQNRTN | not soluble
11 | DKELFFINVYDITASKKAERELIESEEKFKQVVELSVDGIIIGTDSGKIVDCNGAACRIFGYDKEEILKLQVIDLFPGDLNIIAHDITSCNKAAGEKTVERINQKKDGTSFPAEVAARRVKLGN | not soluble
12 | MQDLSFSTIENHLGPAKDRFFGDGFKHVEYSARHVNLTESEANASISLSYPANWSKKNDSGELIPHLSSIDALTISINLSQDILLNRFKSIDHCWVRRISIRAGKKPEEDLRNINAKITKESQGLDSQGDTNLIFGGNVGTMTVQLEFIIPAAHEVDTIKDSTEKNCYSLHFKNRTQFIDDIIFYSPLNAISKLFVANDNEPHFLPGGIEANYPNIINPVDSLVSHAQIAQALLYKLDGLTRGESNTLWMRNLNIIAENPAKRRAATRLLVTELKRANIVSLKGENWRVAEVAGHMNGITFSSSVAHLLPL | not soluble
13 | MNFRTGQPSDAAALAAISIEVWLGTYMRKGVSAFFAEYALNEFTSTKMASLLKDPNEHVIVSENEGGIDAFIRLGQGRAAPVSGCSTLEIATLYVQPRHHRRGLGRALLEQGLAYARQASAPSVWLTTNSENAPAIAFYLEQGFEKVGTTHFNIGDQAYLNDVFRRIVSM | soluble
14 | MGSDKIHHHHHHMRISLSTGTLFTFPLGKVMRIAREAGFDGVELIINQDFQKVNCRKLIEELAEILPINSIHAPFMPLDGWGGPIDSLERCVELAAGAGIPLVNFHPPSWMGFEIGFWRWLYRVMDFQKEVGRETVIVTLENMPWVGTRFRVNPHILSNTEKLIEFIQERNLYMTFDTTHMGSGKANFINDFYHCYNSGRIRNIHFSDYGHGREHLIPGHGILPLTRFLNHLRSTDYADTLTLELSPEEFPRDERIIVESLREILQYLRRETSPA | not soluble
15 | MTAPRYPRDMIGYGATPPNANWPGNARIAVQIVLNYEEGGENNILHGDAASEAFLSEIVGAAPWPGQRHWNMETIYEYGARAGFWRLHRLMRDLPVTVYGVATALARSPDQVAAMKSAGWEIASHGLKWVEHKDMPEEEERAQIAEAIRLHTEVTGSRPRGWYTGRCSMNTVRLASEAGIDYIADTYDDDLPYWKRIDGRDQLIVPYTLDCNDMRFATPQGFNSGDQFFAYLKDSFDALYAEGGEGAPKMLSIGLHCRLIGRPGRVMALKRFLDYARGHEDVWFATRLQIAEHWVREHPPVARTRPSEMPKADFVAAYGGIFEHSPWIAERAHGLELGPAHDTAGGLHNALCRMFRSASAEERLGVLTAHPDLAGKLAQAKRLTAESTSEQASAGLDALTDEERTTFTRLNTEYVARFGFPFIIAVRDHDKASILAAFQRRIGNDRETEFAEACRQVERIAEFRLRDVLPSLEHHHHHH | soluble
